What follows are substances tested against RBD derived from the Omicron strain (BA.3 strain) (SARS-CoV-2).

Row | Substance | binding inhibition rate (%)
1 | ADG2 (antibody) | < 80
2 | AZD1061 (antibody) | < 80
3 | AZD8895 (antibody) | < 80
4 | LY_CoV16 (antibody) | < 80
5 | LY_CoV555 (antibody) | < 80
6 | REGN10933 (antibody) | < 80
7 | REGN10987 (antibody) | < 80
8 | S309 (antibody) | < 80
